In IntAct's records for PubMed 19298369:

B1: Sigma factor AlgU negative regulatory protein (Pseudomonas aeruginosa (strain ATCC 15692 / PAO1 / 1C / PRS 101 / LMG 12228)), P38107 (parent)
chain: MSREALQETLSAVMDNEADELELRRVLAACGEDAELRSTWSRYQLARSVMHREPTLPKLDIAAAVSAALADEAAPPKAEKGPWRMVGRLAVAASVTLAVLAGVRLYNQNDALPQMAQQGTTPQIALPQVKGPAVLAGYSEEQGAPQVITNSSSSDTRWHEQRLPIYLRQHVQQSAVSGTESALPYARAASLENR
partner: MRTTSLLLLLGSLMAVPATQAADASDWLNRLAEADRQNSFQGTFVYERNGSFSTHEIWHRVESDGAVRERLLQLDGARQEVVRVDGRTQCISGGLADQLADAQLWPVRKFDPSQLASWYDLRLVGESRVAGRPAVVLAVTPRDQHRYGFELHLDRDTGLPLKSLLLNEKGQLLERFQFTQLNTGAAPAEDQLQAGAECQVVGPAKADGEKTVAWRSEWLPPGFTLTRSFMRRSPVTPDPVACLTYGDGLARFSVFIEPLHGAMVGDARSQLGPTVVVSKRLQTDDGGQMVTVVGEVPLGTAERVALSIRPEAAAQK

Variants of: B1
Details: with mucb_pseae mucB

Variant | effect of a mutation on the interaction
MSREALQETLSAVMDNEADELELRRVLAACGEDAELRSTWSRYQLARSVMHREPTLPKLDIAAAVSAALADEAAPPKAEKGPWRMVGRLAVAASVTLAVLAGVRLYNQNDALPQMAQQGTTPQIALPQVKGPAVLAGYSEEQGAPQVITNSSSCDTRWHEQRLPIYLRQHVQQSAVSGTESALPYARAASLENR | decreasing interaction strength
